Reference: US5747321

Biological target: fused protein β-gal97S4DhCNP-22R5-3 (human) (UniProt P23582)

Substance: natural V8 protease (Staphylococcus aureus V8 protease) (from UniProt P0C1U8) (enzyme)
- cleavage efficiency (proportion of fused protein cleaved): 60%
